To fix the notation:
B1: Zinc finger MYM-type protein 3, residues 589 to 668; numbered along this chain, Q14202 (parent)
chain: LSCHYCHSLFSGKPEVLDWQDQVFQFCCRDCCEDFKRLRGVVSQCEHCRQEKLLHEKLRFSGVEKSFCSEGCVLLYKQDF

± gives the uncertainty stated by the source.

The results in this text go back to the Human Domainome abundance scans (Beltran et al. 2025).

In this data set the parent is B1. Description: abundance fitness (aPCA) (normalised: wild type 0, dead -1); higher = more abundant; growth selection in yeast, the domain comes from the species named. The following applies: Homo sapiens.
Turning to D79S, the abundance fitness is 0.241 ± 0.15. For the variant D79K, the abundance fitness was 0.856 ± 0.22. Turning to D79P, the abundance fitness was 0.119 ± 0.22.

For the variant K65Q, the abundance fitness was -0.692 ± 0.27. For G71C the value was -0.535 ± 0.21. G71S: the abundance fitness worked out at 0.453 ± 0.1. On to G71K, for which the abundance fitness is 0.337 ± 0.22. As to G71A, the abundance fitness was determined as 0.156 ± 0.087.

In the case of G71R, the abundance fitness came out at 0.501 ± 0.073. On to G71H, for which the abundance fitness is -0.037 ± 0.32. For L75E the value was 0.268 ± 0.11.

With L75K, the abundance fitness stood at 0.318 ± 0.23. As to H4A, the abundance fitness is 0.28 ± 0.039. As to H4P, the abundance fitness was -0.061 ± 0.048. Regarding H4M, the abundance fitness came to 0.227 ± 0.044. Consider H4E, for which the abundance fitness amounted to 0.174 ± 0.047. For H4L the value was -0.05 ± 0.04; for H4S, 0.248 ± 0.043.

With H4F, the abundance fitness stood at 0.128 ± 0.072. With H4Y, the abundance fitness came to 0.116 ± 0.059. For Q20P the value was 0.179 ± 0.091. As to Q20W, the abundance fitness turned out to be 0.014 ± 0.053. With Q20A, the abundance fitness came out at 0.265 ± 0.051. Take Q20Y: the abundance fitness was -0.3 ± 0.21. For S2N the value was 0.48 ± 0.055; for S2K, 0.354 ± 0.045; for S2D, 0.412 ± 0.055. For S2G the value was 0.157 ± 0.044. Consider S2Y, for which the abundance fitness came to 0.293 ± 0.056. With S2I, the abundance fitness stood at 0.311 ± 0.069.

For S2A, the abundance fitness was 0.106 ± 0.051. On to S2H, for which the abundance fitness was 0.281 ± 0.055. Regarding S2R, the abundance fitness was determined as 0.12 ± 0.042. Turning to C28V, the abundance fitness was -0.321 ± 0.043. For C28P, the abundance fitness is -0.607 ± 0.076. On to C28A, for which the abundance fitness turned out to be 0.017 ± 0.041. For C28S, the abundance fitness was -0.021 ± 0.044. The result for C28T reads 0.11 ± 0.047. On to C28K, for which the abundance fitness is 0.105 ± 0.063.

Regarding V63Q, the abundance fitness was -0.548 ± 0.36.

In the case of V63D, the abundance fitness was -0.175 ± 0.21. In the case of V63K, the abundance fitness was -0.13 ± 0.23. Regarding L1E, the abundance fitness came out at 0.082 ± 0.23. As to L1Q, the abundance fitness is -0.703 ± 0.35. For the variant L1Y, the abundance fitness amounted to 0.047 ± 0.078. For L1S, the abundance fitness is -0.206 ± 0.056.

As to H55Q, the abundance fitness was -0.516 ± 0.39. The result for H55V reads -0.006 ± 0.14; that for H55D, 0.35 ± 0.49; that for R49K, -0.084 ± 0.19. Turning to R49L, the abundance fitness was -0.131 ± 0.11.

Take R49Y: the abundance fitness is -0.618 ± 0.39.

For the variant C27S, the abundance fitness is -0.892 ± 0.086.

S43G: the abundance fitness was found to be 0.59 ± 0.08. The result for S43W reads -0.889 ± 0.29; that for S43Q, -0.339 ± 0.18; that for S43L, -0.576 ± 0.19. On to C32V, for which the abundance fitness was determined as 0.038 ± 0.041. The result for C32L reads -0.027 ± 0.042.

With C32Q, the abundance fitness was -0.08 ± 0.055. Turning to E15F, the abundance fitness was -0.049 ± 0.15. E15N: the abundance fitness was -0.015 ± 0.1. The result for E15T reads 0.076 ± 0.062.

As for E46D, the abundance fitness came out at 0.228 ± 0.23.

In the case of E46Q, the abundance fitness came to 0.281 ± 0.21.

On to V23L, for which the abundance fitness stood at 0.155 ± 0.04.

For the variant V23S, the abundance fitness was found to be 0.287 ± 0.047. The result for V23E reads 0.227 ± 0.049; that for V23R, 0.294 ± 0.039; that for V23G, -0.003 ± 0.042. With Q44A, the abundance fitness stood at 0.702 ± 0.075. In the case of Q44F, the abundance fitness is 1.01 ± 0.16. As to Q44L, the abundance fitness was determined as 0.854 ± 0.079. With Q44S, the abundance fitness came to 0.39 ± 0.12. Take Q44D: the abundance fitness turned out to be 0.204 ± 0.18.

For the variant Q44R, the abundance fitness stood at 0.889 ± 0.075. For Q44Y the value was 1.13 ± 0.34; for D30Q, -0.036 ± 0.054; for D30S, 0.055 ± 0.043. D30V: the abundance fitness is 0.109 ± 0.04. D30W: the abundance fitness is -0.227 ± 0.05. With D30E, the abundance fitness stood at 0.014 ± 0.046.

As for K13Q, the abundance fitness is 0.039 ± 0.054. For K13S, the abundance fitness was -0.062 ± 0.053. Take K13N: the abundance fitness is -0.198 ± 0.13. Turning to K13Y, the abundance fitness was -0.389 ± 0.14. Take K13I: the abundance fitness was -0.098 ± 0.083. For K13G the value was -0.162 ± 0.044; for S66V, -0.235 ± 0.14. Consider S66M, for which the abundance fitness was -0.002 ± 0.28.

On to S66H, for which the abundance fitness is 0.295 ± 0.38. On to S66P, for which the abundance fitness is -0.834 ± 0.32. With H7S, the abundance fitness was 0.237 ± 0.058. Take H7Q: the abundance fitness was -0.12 ± 0.088. Take H7T: the abundance fitness is 0.124 ± 0.059.

As to H7I, the abundance fitness came to 0.088 ± 0.095. For H7F, the abundance fitness worked out at 0.165 ± 0.15. For the variant K57S, the abundance fitness was -0.361 ± 0.15.

Consider K57L, for which the abundance fitness is -0.016 ± 0.15. Take K57D: the abundance fitness was 0.159 ± 0.37. For K57F the value was -0.16 ± 0.41; for K57Q, -0.131 ± 0.14; for K57C, -0.433 ± 0.41.

Turning to K57I, the abundance fitness was determined as 0.297 ± 0.17. Take D34W: the abundance fitness is -0.1 ± 0.054. As to D34Q, the abundance fitness is -0.136 ± 0.05.

For D34Y, the abundance fitness was 0.105 ± 0.083. For D34A, the abundance fitness amounted to 0.064 ± 0.047. Turning to F67T, the abundance fitness was -0.614 ± 0.18. For F67E the value was -0.626 ± 0.18; for F67G, 0.039 ± 0.12. For the variant L54R, the abundance fitness is -0.664 ± 0.14. For the variant L54E, the abundance fitness was -0.866 ± 0.44. For L54G the value was -0.536 ± 0.095; for L54D, -0.589 ± 0.3. The result for Q22E reads 0.313 ± 0.047. Consider Q22V, for which the abundance fitness was 0.288 ± 0.045. Consider Q22D, for which the abundance fitness was determined as 0.297 ± 0.048. As for Q22S, the abundance fitness came to 0.24 ± 0.043. Q22L: the abundance fitness worked out at 0.063 ± 0.049. The result for V16G reads -0.208 ± 0.044; that for V16R, 0.004 ± 0.043; that for V16D, -0.702 ± 0.2. Consider V16I, for which the abundance fitness was -0.121 ± 0.083. For the variant V16H, the abundance fitness is -0.044 ± 0.057.

For the variant V16P, the abundance fitness was -0.099 ± 0.063. For the variant V16K, the abundance fitness was -0.11 ± 0.058. Turning to V16Y, the abundance fitness was -0.041 ± 0.14. Consider V16E, for which the abundance fitness is -0.072 ± 0.049. C68K: the abundance fitness was -0.525 ± 0.24.

As for C68Q, the abundance fitness was -0.558 ± 0.19. Take C68E: the abundance fitness was -0.911 ± 0.26.

Regarding W19V, the abundance fitness was found to be 0.167 ± 0.043. Consider W19A, for which the abundance fitness was determined as 0.175 ± 0.044. In the case of W19E, the abundance fitness was 0.201 ± 0.059.

W19P: the abundance fitness stood at 0.224 ± 0.055. For the variant W19L, the abundance fitness was 0.332 ± 0.042. For K77A, the abundance fitness was -0.78 ± 0.19. For the variant K36Q, the abundance fitness amounted to 0.034 ± 0.048. Turning to K36T, the abundance fitness was -0.011 ± 0.053. For the variant K36G, the abundance fitness is -0.019 ± 0.039.

Take K36F: the abundance fitness was -0.088 ± 0.074. For K36H the value was -0.089 ± 0.057. As for L74P, the abundance fitness is -0.205 ± 0.43.

Consider L74W, for which the abundance fitness turned out to be 0.081 ± 0.13. For L74E the value was 0.662 ± 0.091; for L74Q, 0.244 ± 0.15. Turning to L38S, the abundance fitness came out at 0.05 ± 0.057. Turning to L38W, the abundance fitness came out at 0.243 ± 0.073. Take L38Y: the abundance fitness is -0.041 ± 0.15.

L38E: the abundance fitness amounted to 0.302 ± 0.14.

In the case of L38P, the abundance fitness was determined as 0.062 ± 0.078. For the variant C6F, the abundance fitness is -1.2 ± 0.35. Consider C6V, for which the abundance fitness was -0.995 ± 0.077. The result for C6Y reads -0.828 ± 0.13; that for C6M, -0.325 ± 0.19; that for C6D, -1.01 ± 0.27.

Take L17R: the abundance fitness was -0.348 ± 0.047. In the case of L17H, the abundance fitness is -0.017 ± 0.068. Take L17K: the abundance fitness was -0.359 ± 0.076. For the variant L17Q, the abundance fitness is -0.015 ± 0.068. On to R39M, for which the abundance fitness came to 0.032 ± 0.39. The result for R39K reads -0.146 ± 0.33; that for R39G, 0.424 ± 0.11.

As to R39E, the abundance fitness was -0.159 ± 0.39.

Regarding R39A, the abundance fitness was -0.417 ± 0.18. For L53W, the abundance fitness was -0.676 ± 0.14.
